Assays:
[1] = system: TALE tetramer library CTTC (repeats 1-4 varied) (synthetic (Xanthomonas TALE scaffold)); experiment: ELISA; details: mean of 132 library clones, SE 0.07
[2] = system: TALE tetramer library TCAT (repeats 1-4 varied) (synthetic (Xanthomonas TALE scaffold)); experiment: ELISA; details: mean of 44 library clones, SE 0.22
[3] = system: TALE tetramer library ATAC (repeats 5-8 varied) (synthetic (Xanthomonas TALE scaffold)); experiment: ELISA; details: mean of 43 library clones, SE 0.06
[4] = system: TALE tetramer library ATTG (repeats 5-8 varied) (synthetic (Xanthomonas TALE scaffold)); experiment: ELISA; details: mean of 131 library clones, SE 0.05
[5] = system: TALE tetramer library CAGA (repeats 5-8 varied) (synthetic (Xanthomonas TALE scaffold)); experiment: ELISA; details: mean of 146 library clones, SE 0.02
[6] = system: TALE tetramer library CAGC (repeats 5-8 varied) (synthetic (Xanthomonas TALE scaffold)); experiment: ELISA; details: mean of 137 library clones, SE 0.02
[7] = system: TALE tetramer library CCTG (repeats 5-8 varied) (synthetic (Xanthomonas TALE scaffold)); experiment: ELISA; details: mean of 90 library clones, SE 0.03
[8] = system: TALE tetramer library TACA (repeats 5-8 varied) (synthetic (Xanthomonas TALE scaffold)); experiment: ELISA; details: mean of 85 library clones, SE 0.06
[9] = system: TALEN R2+17 (synthetic (Xanthomonas TALE scaffold)); experiment: cell_activity; details: K562, partner L+17 or L*+17, cold shock

CATAGTCCCCTCTTCATCCTCCTCGGTGTAGTTTTCACAGTCAGTCCACACGTC (double strand) [CTTC target]
binding signal (fraction of canonical control) [1]: 0.55

CATAGTCCCCTTCATATCCTCCTCGGTGTAGTTTTCACAGTCAGTCCACACGTC (double strand) [TCAT target]
binding signal (fraction of canonical control) [2]: 1.03

CATAGTCCCCTTGACATACTCCTCGGTGTAGTTTTCACAGTCAGTCCACACGTC (double strand) [ATAC target]
binding signal (fraction of canonical control) [3]: 0.56

CATAGTCCCCTTGACATTGTCCTCGGTGTAGTTTTCACAGTCAGTCCACACGTC (double strand) [ATTG target]
binding signal (fraction of canonical control) [4]: 0.37

CATAGTCCCCTTGACCAGATCCTCGGTGTAGTTTTCACAGTCAGTCCACACGTC (double strand) [CAGA target]
binding signal (fraction of canonical control) [5]: 0.18

CATAGTCCCCTTGACCAGCTCCTCGGTGTAGTTTTCACAGTCAGTCCACACGTC (double strand) [CAGC target]
binding signal (fraction of canonical control) [6]: 0.03

CATAGTCCCCTTGACCCTGTCCTCGGTGTAGTTTTCACAGTCAGTCCACACGTC (double strand) [CCTG target]
binding signal (fraction of canonical control) [7]: 0.2

CATAGTCCCCTTGACTACATCCTCGGTGTAGTTTTCACAGTCAGTCCACACGTC (double strand) [TACA target]
binding signal (fraction of canonical control) [8]: 0.5

CCATACAGTCAGTATCAAT (double strand) [CCR5 +17 target, right half]
activity [9]: > 85 % indels

Source: patent publication US20150307561
